Test results as given in publication PMC4990313 (ACS Catalysis, 2013).

Molecular target: the molecule itself
Assay: crystal structure; sitting drop vapor diffusion at 20 °C, 100 mM KH2PO4/citrate pH 4.0-5.0, PEG 300 35-50%; holo, NADP(H)-soaked (binary) and NADP+ + HMCA-soaked (ternary) crystals; dimer interface analysed with PISA

B1: double bond reductase from Nicotiana tabacum (NtDBR) (enzyme, UniProt Q9SLN8 1-343, looked up)
chain: MAEEVSNKQVILKNYVTGYPKESDMEIKNVTIKLKVPEGSNDVVVKNLYLSCDPYMRSRMRKIEGSYVESFAPGSPITGYGVAKVLESGDPKFQKGDLVWGMTGWEEYSIITPTQTLFKIHDKDVPLSYYTGILGMPGMTAYAGFHEVCSPKKGETVFVSAASGAVGQLVGQFAKMLGCYVVGSAGSKEKVDLLKSKFGFDEAFNYKEEQDLSAALKRYFPDGIDIYFENVGGKMLDAVLVNMKLYGRIAVCGMISQYNLEQTEGVHNLFCLITKRIRMEGFLVFDYYHLYPKYLEMVIPQIKAGKVVYVEDVAHGLESAPTALVGLFSGRNIGKQVVMVSRE
- stoichiometry N: 2
